33 molecules from patent US20210145976A1 (ARO BIOTHERAPEUTICS, published 2021) can be followed below.

The target of assay [1] is T1, recombinant biotinylated CD71 extracellular domain (Sino Biologics) with an N-terminal 6His tag (human, UniProt P02786 89-760, biotinylated (sites not given)).
T1 construct: extracellular domain; also called hCD71; huCD71
Briefly: screening ELISA.

In assay [2] the target is T1, recombinant biotinylated CD71 …. Kind of assay: screening ELISA, ratio. On the technique in general: In an ELISA, binding on a coated surface is turned into a signal by an enzyme label.

T1 sequence (P02786 other isoform, or with tags, fused parts or gaps): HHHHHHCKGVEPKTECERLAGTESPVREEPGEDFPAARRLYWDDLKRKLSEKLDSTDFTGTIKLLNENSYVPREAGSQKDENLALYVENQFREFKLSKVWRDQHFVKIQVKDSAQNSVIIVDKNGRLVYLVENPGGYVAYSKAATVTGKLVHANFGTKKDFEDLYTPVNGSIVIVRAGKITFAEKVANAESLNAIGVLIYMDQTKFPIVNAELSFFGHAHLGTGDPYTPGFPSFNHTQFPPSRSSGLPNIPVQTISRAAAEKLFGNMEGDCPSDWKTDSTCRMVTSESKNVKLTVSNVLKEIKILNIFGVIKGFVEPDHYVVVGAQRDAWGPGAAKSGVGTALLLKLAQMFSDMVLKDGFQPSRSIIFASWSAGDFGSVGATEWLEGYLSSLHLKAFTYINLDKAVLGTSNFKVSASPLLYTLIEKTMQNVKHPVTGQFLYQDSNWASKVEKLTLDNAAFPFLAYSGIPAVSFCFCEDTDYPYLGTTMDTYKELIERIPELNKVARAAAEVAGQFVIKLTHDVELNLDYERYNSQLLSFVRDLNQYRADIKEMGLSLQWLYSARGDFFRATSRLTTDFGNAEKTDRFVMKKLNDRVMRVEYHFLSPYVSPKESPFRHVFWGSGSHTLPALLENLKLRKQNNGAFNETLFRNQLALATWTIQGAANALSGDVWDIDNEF

B1: SEQ ID NO 154 (designed binder)
chain: MLPAPKNLVVSRVTEDSARLSWTAPDAAFDSFFIPYAEPRPDGEAIVLTVPGSERSYDLTGLKPGTEYSVLIHGVKGGLLSSPLSAIFTT
notes: FN3 domain
Regarding B1, in assay [1], the hCD71 is 2.78e+06. Moreover, in assay [2], the “hCD71:HSA” value is 670.

B2: SEQ ID NO 147 (designed binder)
chain: MLPAPKNLVVSRVTEDSARLSWTAPDAAFDSFFIGYLEPQPPGEAIVLTVPGSERSYDLTGLKPGTEYSVLIHGVKGGRNSDPLSAISTT
notes: FN3 domain
Regarding B2, the hCD71 in assay [1] was determined as 2.36e+06. Besides, the “hCD71:HSA” value in assay [2] came to 33.

B3: SEQ ID NO 118 (designed binder)
chain: MLPAPKNLVVSRVTEDSARLSWTAPDAAFDSFRILYGEVDPWGEAIVLTVPGSERSYDLTGLKPGTEYDVWIEGVKGGKLSWPLSAIFTT
notes: FN3 domain
With B3, in assay [1], the hCD71 stood at 2.24e+06. Besides, in assay [2], the “hCD71:HSA” value worked out at 119.

B4: SEQ ID NO 132 (designed binder)
chain: MLPAPKNLVVSRVTEDSARLSWTAPDAAFDSFTIVYAEVTYDGEAIVLTVPGSERSYDLTGLKPGTEYDVFIEGVKGGELSWPLSAIFTT
notes: FN3 domain
On to B4, for which the hCD71 in assay [1] is 2.75e+06. For the same molecule, the “hCD71:HSA” value in assay [2] was 1170.

B5: SEQ ID NO 125 (designed binder)
chain: MLPAPKNLVVSRVTEDSARLSWTAPDAAFDSFVIEYFEFVGEGEAIVLTVPGSERSYDLTGLKPGTEYDVGIYGVKGGSLSSPLSAIFTT
notes: FN3 domain
As for B5, the hCD71 in assay [1] was 2.33e+06. Besides, the “hCD71:HSA” value in assay [2] was determined as 2220.

B6: SEQ ID NO 114 (designed binder)
chain: MLPAPKNLVVSRVTEDSARLSWTAPDAAFDSFAIEYWEAVGSGEAIVLTVPGSERSYDLTGLKPGTEYHVYIYGVKGGYLSLPLSAIFTT
notes: FN3 domain
With B6, the hCD71 in assay [1] was 3.27e+06. For the same molecule, the “hCD71:HSA” value in assay [2] is 780.

B7: SEQ ID NO 101 (designed binder)
chain: MLPAPKNLVVSRVTEDSARLSWTAPDAAFDSFAIDYDEPINSGEAIVLTVPGSERSYDLTGPKPGTEYEVEIYGVKGGYLSRPLSAIFTT
notes: FN3 domain
Consider B7, for which the hCD71 in assay [1] turned out to be 1.97e+06. The “hCD71:HSA” value in assay [2] came out at 216.

B8: SEQ ID NO 137 (designed binder)
chain: MLPAPKNLVVSRVTEDSARLSWTAPDAAFDSFEIEYDEPSVAGEAIVLTVPGSERSYDLTGLKPGTEYRVFIWGVKGGNQSWPLSAIFTT
notes: FN3 domain
For the molecule B8, the hCD71 in assay [1] amounted to 484000. In assay [2], the “hCD71:HSA” value amounted to 236.

B9: SEQ ID NO 98 (designed binder)
chain: MLPAPKNLVVSRITEDSARLSWTAPDAAFDSFDIPYGEFDTIGEAIVLTVPGSERSYDLTGLKPGTEYDVYIEGVKGGHLSWPLSAIFTT
notes: FN3 domain
For the molecule B9, the hCD71 in assay [1] is 1.16e+06. Further, in assay [2], the “hCD71:HSA” value was determined as 75.

B10: SEQ ID NO 141 (designed binder)
chain: MLPAPKNLVVSRVTEDSARLSWTAPDAAFDSFVIEYFEQFNLGEAIVLTVPGSERSYDLTGLKPGTEYLVGIYGVKGGWLSHPLSAIFTT
notes: FN3 domain
As to B10, the hCD71 in assay [1] was 2.04e+06. The “hCD71:HSA” value in assay [2] came to 648.

B11: SEQ ID NO 105 (designed binder)
chain: MLPAPKNLVVSRVTEDSARLSWTAPDAAFDSFGIAYYERSGAGEAIVLTVPGSERSYDLTGLKPGTEYMVYINGVKGGFVSSPLSAIFTT
notes: FN3 domain
As to B11, the hCD71 in assay [1] is 1.76e+06. Further, in assay [2], the “hCD71:HSA” value worked out at 1260.

B12: SEQ ID NO 90 (designed binder)
chain: MLPAPKNLVVSRVTEDSARLSWTAPDAAFDSFTIHYWEFDPPGEAIVLTVPGSERSYDLTGLKPGTEYTVYIEGVKGGWWSKPLSAIFTT
notes: FN3 domain
For the molecule B12, the hCD71 in assay [1] is 1.09e+06. For the same molecule, the “hCD71:HSA” value in assay [2] came out at 429.

B13: SEQ ID NO 86 (designed binder)
chain: MLPAPKNLVVSRVTEDSARLSWTAPDAAFDSFIIWYAEWVNDGEAIVLTVPGSERSYDLTGLKPGTEYRVEITGVKGGTWSRPLSAIFTT
notes: FN3 domain
As to B13, the hCD71 in assay [1] came to 3.39e+06. For the same molecule, the “hCD71:HSA” value in assay [2] came out at 1510.

B14: SEQ ID NO 108 (designed binder)
chain: MLPAPKNLVVSRVTEDSARLSWTAPDAAFDSFTIIYGEVNPYGEAIVLTVPGSERSYDLTGLKPGTEYDVFIEGVKGGHLSWPLSAIFTT
notes: FN3 domain
For B14, the hCD71 in assay [1] is 3.19e+06. In addition, the “hCD71:HSA” value in assay [2] stood at 2450.

B15: SEQ ID NO 133 (designed binder)
chain: MLPAPKNLVVSRVTEDSARLSWTAPDAAFDSFPIVYGEAWVTGEAIVLTVPGSERSYDLTGLKPGTEYDVWIEGVKGGELSWPLSAIFTT
notes: FN3 domain
For the molecule B15, the hCD71 in assay [1] turned out to be 4.28e+06. The “hCD71:HSA” value in assay [2] was 855.

B16: SEQ ID NO 110 (designed binder)
chain: MLPAPKNLVVSRVTEDSARLSWTAPDAAFDSFFIHYHEWWEAGEAIVLTVPGSERSYDLTGLKPGTEYLVDIPGVKGGDLSVPLSAIFTT
notes: FN3 domain
Consider B16, for which the hCD71 in assay [1] is 1.68e+06. Besides, the “hCD71:HSA” value in assay [2] came out at 89.

B17: SEQ ID NO 123 (designed binder)
chain: MLPAPKNLVVSRVTEDSARLSWTAPDAAFDSFVIPYEEYLYTGEAIVLTVPGSERSYDLTGLKPGTEYDVWIEGVKGGLTSWPLSAIFTT
notes: FN3 domain
Regarding B17, the hCD71 in assay [1] is 707000. Further, in assay [2], the “hCD71:HSA” value is 228.

B18: SEQ ID NO 159 (designed binder)
chain: MLPAPKNLVVSRVTEDSARLSWTAPDAAFDSFLIPYAETSPSGEAIVLTVPGSERSYDLTGLKPGTEYSVLIHGVKGGRNSDPLSAIFTT
notes: FN3 domain
As to B18, the hCD71 in assay [1] stood at 2.58e+06. Moreover, in assay [2], the “hCD71:HSA” value was 1320.

B19: SEQ ID NO 116 (designed binder)
chain: MLPAPKNLVVSRVTEDSARLSWTAPDAAFDSFSIAYSEVRYDGEAIVLTVPGSERSYDLTGLKPGTEYVVPIGGVKGGGSSSPLSAIFTT
notes: FN3 domain
With B19, the hCD71 in assay [1] came to 536000. Besides, the “hCD71:HSA” value in assay [2] was 358.

B20: SEQ ID NO 88 (designed binder)
chain: MLPAPKNLVVSRVTEDSARLSWTAPDAAFDSFWIEYFEWTVGGEAIVLTVPGSERSYDLTGLKPGTEYYVSIYGVKGGWLSPPLSAIFTT
notes: FN3 domain
On to B20, for which the hCD71 in assay [1] amounted to 708000. Further, in assay [2], the “hCD71:HSA” value came out at 118.

B21: SEQ ID NO 122 (designed binder)
chain: MLPAPKNLVVSRVTEDSARLSWTAPDAAFDSFQIPYWEQSLGGEAIVLTVPGSERSYDLTGLKPGTEYEVWIEGVKGGDLSFPLSAISTT
notes: FN3 domain
In the case of B21, in assay [1], the hCD71 stood at 2.31e+06. The “hCD71:HSA” value in assay [2] was determined as 78.

B22: SEQ ID NO 145 (designed binder)
chain: MLPAPKNLVVSRVTEDSARLSWTAPDAAFDSFFIPYAEPSPTGEAIVLTVPGSERSYDLTGLKPGTEYDVWIEGVKGGTLSWPLSAIFTT
notes: FN3 domain
Consider B22, for which, in assay [1], the hCD71 came out at 1.62e+06. In addition, the “hCD71:HSA” value in assay [2] worked out at 33.

B23: SEQ ID NO 93 (designed binder)
chain: MLPAPKNLVVSRVTEDSARLSWTAPDAAFDSFYIGYLEPGDNGEAIVLTVPGSERSYDLTGLKPGTEYNVSIGGVKGGLGSYPLSAIFTT
notes: FN3 domain
With B23, the hCD71 in assay [1] came to 2.16e+06. Also, the “hCD71:HSA” value in assay [2] worked out at 1310.

B24: SEQ ID NO 150 (designed binder)
chain: MLPAPKNLVVSRVTEDSARLSWTAPDAAFDSFPIAYAEPSPTGEAIVLTVPGSERSYDLTGLKPGTEYSVLIHGVKGGHLSDPLSAIFTT
notes: FN3 domain
B24: in assay [1], the hCD71 was found to be 2.62e+06. Further, the “hCD71:HSA” value in assay [2] worked out at 748.

B25: SEQ ID NO 156 (designed binder)
chain: MLPAPKNLVVSRVTEDSARLSWTAPDAAFDSFAIEYFENLGIGEAIVLTVPGSERSYDLTGLKPGTEYVVNIYGVKGGWLSSPLSAIFTT
notes: FN3 domain
With B25, the hCD71 in assay [1] came to 1.03e+06. In assay [2], the “hCD71:HSA” value was determined as 206.

B26: SEQ ID NO 117 (designed binder)
chain: MLPAPKNLVVSRVTEDSARLSWTAPDAAFDSFTIPYGEAFNPGEAIVLTVPGSERSYDLTGLKPGTEYDVFIEGVKGGTLSWPLSAIFTT
notes: FN3 domain
For B26, the hCD71 in assay [1] worked out at 1.5e+06. Further, the “hCD71:HSA” value in assay [2] worked out at 64.

B27: SEQ ID NO 144 (designed binder)
chain: MLPAPKNLVVSRVTEDSARLSWTAPDAAFDSFIIPYAEVRPDGEAIVLTVPGSERSYDLTGLKPGTEYSVLIHGVKGGKLSLPLSAIFTT
notes: FN3 domain
B27: the hCD71 in assay [1] was 2.71e+06. In addition, in assay [2], the “hCD71:HSA” value came to 986.

B28: SEQ ID NO 158 (designed binder)
chain: MLPAPKNLVVSRVTEDSARLSWTAPDAAFDSFIIDYLELDDYGEAIVLTVPGSERSYDLTGLKPGTEYPVYIYGVKGGLPSTPLSAIFTT
notes: FN3 domain
For B28, in assay [1], the hCD71 amounted to 2.06e+06. Besides, the “hCD71:HSA” value in assay [2] is 1520.

B29: SEQ ID NO 151 (designed binder)
chain: MLPAPKNLVVSRVTEDSARLSWTAPDAAFDSFFIPYAEPSPTGEAIVLTVPGSERSYDLTGLKPGTEYGVVILGVKGGYGSDPLSAIFTT
notes: FN3 domain
Regarding B29, the hCD71 in assay [1] is 1.77e+06. The “hCD71:HSA” value in assay [2] came out at 32.

B30: SEQ ID NO 138 (designed binder)
chain: MLPAPKNLVVSRVTEDSARLSWTAPDAAFDSFFIKYIEWWADGEAIVLTVPGSERSYDLTGLKPGTEYLVEIYGVKGGRQSYPLSAIFTT
notes: FN3 domain
Turning to B30, the hCD71 in assay [1] is 4.18e+06. For the same molecule, the “hCD71:HSA” value in assay [2] came to 1190.

B31: SEQ ID NO 82 (designed binder)
chain: MLPAPKNLVVSRVTEDSARLSWTAPDAAFDSFAIAYVEWWKLGEAIVLTVPGSERSYDLTGLKPGTEYVVPIPGVKGGGHSSPLSAIFTT
notes: FN3 domain
In the case of B31, in assay [1], the hCD71 stood at 3.53e+06. In assay [2], the “hCD71:HSA” value was determined as 187.

B32: SEQ ID NO 131 (designed binder)
chain: MLPAPKNLVVSRVTEDSARLSWTAPDAAFDSFSIDYYEGKGYGEAIVLTVPGSERSYDLTGLKPGTEYQVLISGVKGGKYSLPLSAIFTT
notes: FN3 domain
For B32, the hCD71 in assay [1] was determined as 2.18e+06. The “hCD71:HSA” value in assay [2] amounted to 910.

B33: SEQ ID NO 135 (designed binder)
chain: MLPAPKNLVVSRVTEDSARLSWTAPDAAFDSFPISYYEMSGLGEAIVLTVPGSERSYDLTGLKPGTEYMVYIFGVKGGLNSLPLSAIFTT
notes: FN3 domain
B33: the hCD71 in assay [1] came to 2.06e+06. Besides, the “hCD71:HSA” value in assay [2] was determined as 1370.
